Reference: US20240092848A1 (UNIVERSIT LIBRE DE BRUXELLES, published 2024)
Blank lines part the entries; values can stand above or below the binder they belong to. Side chains are listed from the residue outwards. Ends that are not written are not given here. AFM tip = not defined here

Legend:
Reck-CK-Fc [1] = target: T1, Reck-CK-Fc; assay: single-molecule force spectroscopy (AFM tip with PEG-linked pWnt7b, surface coated with Reck-CK-Fc on protein G)
T1 chain: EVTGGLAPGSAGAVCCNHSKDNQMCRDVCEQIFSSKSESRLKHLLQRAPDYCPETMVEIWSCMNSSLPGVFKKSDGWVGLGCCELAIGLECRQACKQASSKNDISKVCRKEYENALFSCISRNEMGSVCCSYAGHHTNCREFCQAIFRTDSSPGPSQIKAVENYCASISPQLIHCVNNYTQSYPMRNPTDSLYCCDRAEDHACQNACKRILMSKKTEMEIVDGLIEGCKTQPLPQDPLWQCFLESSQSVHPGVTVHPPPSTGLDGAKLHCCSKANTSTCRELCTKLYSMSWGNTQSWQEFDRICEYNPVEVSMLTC

Reck-CK-Fc [2] = target: T1, Reck-CK-Fc; assay: isothermal titration calorimetry with Reck-CK-Fc, 25 °C
Reck-CK-Fc [3] = target: T1, Reck-CK-Fc; assay: isothermal titration calorimetry, peptide titrated into Reck-CK-Fc, 25 °C
HA-Reck = target: T2, HA-Reck; assay: proximity ligation assay (anti-V5/anti-HA), with against without co-expressed Gpr124
T2 construct: whole, on cells; Co-expressed with V5-tagged Wnt ligands in GPR124-/-;RECK-/- HEK293 cells for PLA
T2 sequence (O95980 23-942, species assumed, looked up): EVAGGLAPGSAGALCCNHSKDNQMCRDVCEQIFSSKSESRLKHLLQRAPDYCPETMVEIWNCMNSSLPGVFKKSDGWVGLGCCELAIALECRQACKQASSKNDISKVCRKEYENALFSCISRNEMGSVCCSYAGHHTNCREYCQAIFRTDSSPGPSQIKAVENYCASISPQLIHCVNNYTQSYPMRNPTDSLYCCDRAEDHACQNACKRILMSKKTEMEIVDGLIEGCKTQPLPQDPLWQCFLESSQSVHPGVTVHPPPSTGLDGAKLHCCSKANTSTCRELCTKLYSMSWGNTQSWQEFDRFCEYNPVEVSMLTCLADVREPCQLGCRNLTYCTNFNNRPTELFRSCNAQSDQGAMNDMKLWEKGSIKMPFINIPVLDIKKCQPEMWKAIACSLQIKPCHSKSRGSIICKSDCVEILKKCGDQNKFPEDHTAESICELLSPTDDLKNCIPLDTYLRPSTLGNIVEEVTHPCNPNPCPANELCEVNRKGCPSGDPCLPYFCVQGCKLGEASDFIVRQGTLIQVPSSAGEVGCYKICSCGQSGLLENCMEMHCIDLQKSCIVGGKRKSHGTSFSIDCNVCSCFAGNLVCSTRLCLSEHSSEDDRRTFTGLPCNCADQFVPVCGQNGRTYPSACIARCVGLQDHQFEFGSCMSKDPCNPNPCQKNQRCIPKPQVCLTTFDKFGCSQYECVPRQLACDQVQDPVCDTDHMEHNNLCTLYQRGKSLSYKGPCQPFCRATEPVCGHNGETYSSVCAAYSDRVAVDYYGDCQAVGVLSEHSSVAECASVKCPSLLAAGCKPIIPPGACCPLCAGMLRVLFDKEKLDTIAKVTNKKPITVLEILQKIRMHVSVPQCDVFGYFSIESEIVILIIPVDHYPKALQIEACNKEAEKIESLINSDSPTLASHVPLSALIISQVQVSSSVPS
Procedure: Cells were fixed with 4% paraformaldehyde for 10 min at room temperature (RT) 48 h post transfection. For immunofluorescence staining (IF), cells were blocked in 1% BSA-PBS for 30 min before being exposed to primary antibodies for 1 h at RT. After three PBS washes, cells were incubated with secondary antibodies for 1 h at RT. For anti-V5 staining of Wnt ligands, cells were additionally washes for 10 min in PBS 0.1% Tween 20 before incubation with the secondary antibody solution. For the proximity ligation assay (PLA) (Sigma-Aldrich, St. Louis, MO), cells were blocked for 30 min at 37° C. with the Blocking solution provided by the manufacturer before being incubated with the primary antibodies for 1 h at RT. Cells were washed three times and incubated with the PLA probes anti-rabbit PLUS and anti-mouse MINUS for 1 h at 37° C. […]
Although Reck appears to be the dominant Wnt7 binding determinant, its function in Wnt signaling is known to rely on its capacity to form a complex with Gpr124 through its N-terminal CK domain (Y. Zhou, J. Nathans, Dev. Cell. 31, 248-256 (2014); B. Vanhollebeke et al., Elife. 4, 1-25 (2015)), a domain that is shown herein to be additionally implicated in Wnt7a binding. […] However, a 4-fold increase in Wnt7a-V5/HA-Reck PLAs signals was detected upon co-expression of untagged Gpr124 (FIG. 1F). […]

- Kd (Reck-CK-Fc [1]): 5 µM
B1: pWnt7b peptide on the AFM tip (peptide)
peptide: VEVVRASRLRQPTFLRIKQLRSYQKPMETC([NHS‑PEG27‑maleimide linker-AFM tip])
modifications: reading uncertain
notes: Used in single-molecule force spectroscopy; also called Pep7b

- Kd (Reck-CK-Fc [2]): 1.2 µM
B2: pWnt7b (peptide)
peptide: VEVVRASRLRQPTFLRIKQLRSYQKPMET
notes: also called synthetic Wnt7b linker peptide

Further lines, the binder ahead of its results:

B3: pWnt7a (peptide)
peptide: VEPVRASRNKRPTFLKIKKPLSYRKPMDT
notes: Synthetic, purity over 90%; also called synthetic Wnt7a linker peptide; pWnt7a 238-266
- Kd (Reck-CK-Fc [3]): 7 µM

B4: Wnt7a-V5 (ligand)
chain: LGASIICNKIPGLAPRQRAICQSRPDAIIVIGEGSQMGLDECQFQFRNGRWNCSALGERTVFGKELKVGSREAAFTYAIIAAGVAHAITAACTQGNLSDCGCDKEKQGQYHRDEGWKWGGCSADIRYGIGFAKVFVDAREIKQNARTLMNLHNNEAGRKILEENMKLECKCHGVSGSCTTKTCWTTLPQFRELGYVLKDKYNEAVHVEPVRASRNKRPTFLKIKKPLSYRKPMDTDLVYIEKSPNYCEEDPVTGSVGTQGRACNKTAPQASGCDLMCCGRGYNTHQYARVWQCNCKFHWCCYVKCNTCSERTEMYTCK
modifications: palmitoleic acid at Serine 206 (precursor numbering)
notes: Transiently expressed in HEK293 cells; also called V5-tagged Wnt7a; full-length Wnt7a; not shown: V5 tag
- fold increase in PLA signal upon co-expression of untagged Gpr124 (HA-Reck): 4 fold
